Results: paper PMC9482650, “Quantitative fragmentomics allow affinity mapping of interactomes” (Nature Communications, 2022)

Tests used:
HaCat cell extract preys = assay: PDZ-AP-MS, biotinylated MBP-PDZ baits; assay type: binding, human; conditions: for Difference log2: enrichment of prey; for Ratio SNX27/MBP: bait SNX27 PDZ
Method: (§1) For PDZ-AP-MS experiments, PDZ domains were cloned as His6-AviTag-MBP-PDZ constructs. For co-expression with BirA, E. coli BL21(DE3) cells were co-transformed with His6-AviTag-MBP, or His6-AviTag-MBP-PDZ-coding and PET21a-BirA (Addgene #20857) plasmids. Simultaneously to IPTG induction, 50 µM biotin was added to the media. After cell harvesting, the lysis buffer was also supplemented with 50 µM biotin. Otherwise, expression and double affinity purification was identical as previously described in details.
(§2) For PBM-AP-MS experiments, 30 μl streptavidin resin was mixed with biotin or peptide at 50–60 μM concentration in 6–6.5 resin volume for 60 min to achieve resin saturation. For PDZ-AP-MS experiments, 30 μl streptavidin resin was mixed with biotinylated MBP or MBP-PDZ at 40-50 μM concentration in >1000× resin volume for 60 min to achieve resin saturation. After saturation, resins were washed a single time (ten resin volume, holdup buffer), and were depleted with biotin (1 mM biotin, 5–10 resin volume, 10 min). Finally, resins were washed two times. 0.5 ml 2 mg/ml cell lysate was added to the dry resin (1 mg total input) and were incubated at 4 °C for 2 h. Then, the beads were washed three times with 10 resin volume buffer containing: 50 mM TRIS pH 8.5, 150 mM NaCl, 1% TritonX-100, 10× complete EDTA-free protease inhibitor cocktail, 2 mM EDTA, 1 mM TCEP. Then, the beads were washed two times with ten resin volume buffer containing: 50 mM TRIS pH 8.5, 150 mM NaCl, 1 mM TCEP. Finally, captured protein was eluted from the resin in two steps and the eluted fractions were pooled. For each elution the beads were incubated for 30 min with three resin volume buffer containing: 20 mM TRIS pH8.5, 100 mM NaCl, 500 μM TCEP, 8 M Urea. Between each step, the beads were separated by mild centrifugation and the supernatant was removed by gentle pipetting.
(§3) The samples were precipitated with TCA 20% overnight at 4 °C and centrifuged at 14,000 rpm for 10 min at 4 °C. The protein pellets were washed twice with 1 mL cold acetone and air dried. The protein extracts were solubilized in urea 8 M, reduced with 5 mM TCEP for 30 min, and alkylated with 10 mM iodoacetamide for 30 min in the dark. Double digestion was performed at 37 °C with 500 ng endoproteinase Lys-C for 4 h, followed by fourfold dilution and an overnight digestion with 500 ng trypsin. Peptide mixtures were then desalted on C18 spin-column and dried on Speed-Vacuum.
(§4) Samples were analyzed using an Ultimate 3000 nano-RSLC (Thermo Scientific, San Jose California) coupled in line with a LTQ-Orbitrap ELITE mass spectrometer via a nano-electrospray ionization source (Thermo Scientific, San Jose California). Peptide mixtures were injected in 0.1% TFA on a C18 Acclaim PepMap100 trap-column (75 µm ID × 2 cm, 3 µm, 100 Å, Thermo Fisher Scientific) for 3 min at 5 µL/min with 2% ACN, 0.1% FA in H2O and then separated on a C18 Accucore nano-column (75 µm ID × 50 cm, 2.6 µm, 150 Å, Thermo Fisher Scientific) at 220 nl/min and 38 °C with a 90 min linear gradient from 5% to 30% buffer B (A: 0.1% FA in H2O/B: 99% ACN, 0.1% FA in H2O), regeneration at 5% B. The mass spectrometer was operated in positive ionization mode, in data-dependent mode with survey scans from m/z 350–1500 acquired in the Orbitrap at a resolution of 120,000 at m/z 400. The 20 most intense peaks from survey scans were selected for further fragmentation in the Linear Ion Trap with an isolation window of 2.0 Da and were fragmented by CID with normalized collision energy of 35%. (TOP20CID method) Unassigned and single charged states were excluded from fragmentation. The Ion Target Value for the survey scans (in the Orbitrap) and the MS2 mode (in the Linear Ion Trap) were set to 1E6 and 5E3 respectively and the maximum injection time was set to 100 ms for both scan modes. Dynamic exclusion was set to 20 s after one repeat count with mass width at ±10 ppm. […]

HeLa cell extract preys = assay: PDZ-AP-MS, biotinylated MBP-PDZ baits; assay type: binding, human; conditions: for Ratio: fold enrichment of prey; for Difference: log2 enrichment of prey
Method: as §1, §2, §3, §4

[1] = bait SCRIB_2 PDZ (biotinylated MBP-PDZ) vs MBP control
[2] = bait SCRIB_2 PDZ vs MBP control

B1: CAV1 (protein, UniProt Q03135 2-178, looked up)
Caveolin-1: SGGKYVDSEGHLYTVPIREQGNIYKPNNKAMADELSEKQVYDAHTKEIDLVNRDPKHLNDDVVKIDFEDVIAEPEGTHSFDGIWKASFTTFTVTKYWFYRLLSALFGIPMALIWGIYFAILSFLHIWAVVPCIKSFLIEIQCISRVYSIYVHTVCDPLFEAVGKIFSNVRINLQKEI
In the case of B1, the “Difference log2” value (HaCat cell extract preys; bait SNX27 PDZ vs MBP) is reported as 8.5897 and the “Ratio SNX27/MBP” value (HaCat cell extract preys; fold change of prey) is reported as 385.263.

B2: DARS1 (protein, UniProt P14868 1-501, looked up)
Aspartate--tRNA ligase, …: MPSASASRKSQEKPREIMDAAEDYAKERYGISSMIQSQEKPDRVLVRVRDLTIQKADEVVWVRARVHTSRAKGKQCFLVLRQQQFNVQALVAVGDHASKQMVKFAANINKESIVDVEGVVRKVNQKIGSCTQQDVELHVQKIYVISLAEPRLPLQLDDAVRPEAEGEEEGRATVNQDTRLDNRVIDLRTSTSQAVFRLQSGICHLFRETLINKGFVEIQTPKIISAASEGGANVFTVSYFKNNAYLAQSPQLYKQMCICADFEKVFSIGPVFRAEDSNTHRHLTEFVGLDIEMAFNYHYHEVMEEIADTMVQIFKGLQERFQTEIQTVNKQFPCEPFKFLEPTLRLEYCEALAMLREAGVEMGDEDDLSTPNEKLLGHLVKEKYDTDFYILDKYPLAVRPFYTMPDPRNPKQSNSYDMFMRGEEILSGAQRIHDPQLLTERALHHGIDLEKIKAYIDSFRFGAPPHAGGGIGLERVTMLFLGLHNVRQTSMFPRDPKRLTP
B2 was tested, and the “Difference log2” value (HaCat cell extract preys; bait SCRIB_2 PDZ vs MBP) was 3.605 and the “Ratio SCRIB_2/MBP” value (HaCat cell extract preys; bait SCRIB_2 PDZ, fold change of prey) was 12.1719.

B3: HSPD1 (protein, UniProt P10809 27-573, looked up)
60 kDa heat shock protein, …: AKDVKFGADARALMLQGVDLLADAVAVTMGPKGRTVIIEQSWGSPKVTKDGVTVAKSIDLKDKYKNIGAKLVQDVANNTNEEAGDGTTTATVLARSIAKEGFEKISKGANPVEIRRGVMLAVDAVIAELKKQSKPVTTPEEIAQVATISANGDKEIGNIISDAMKKVGRKGVITVKDGKTLNDELEIIEGMKFDRGYISPYFINTSKGQKCEFQDAYVLLSEKKISSIQSIVPALEIANAHRKPLVIIAEDVDGEALSTLVLNRLKVGLQVVAVKAPGFGDNRKNQLKDMAIATGGAVFGEEGLTLNLEDVQPHDLGKVGEVIVTKDDAMLLKGKGDKAQIEKRIQEIIEQLDVTTSEYEKEKLNERLAKLSDGVAVLKVGGTSDVEVNEKKDRVTDALNATRAAVEEGIVLGGGCALLRCIPALDSLTPANEDQKIGIEIIKRTLKIPAMTIAKNAGVEGSLIVEKIMQSSSEVGYDAMAGDFVNMVEKGIIDPTKVVRTALLDAAGVASLLTTAEVVVTEIPKEEKDPGMGAMGGMGGGMGGGMF
With B3 the “Difference log2” value (HaCat cell extract preys; bait DLG1_1 PDZ vs MBP) was 6.29, the “Ratio DLG1_1/MBP” value (HaCat cell extract preys; bait DLG1_1 PDZ, fold change of prey) was 78.233 and the Ratio (HeLa cell extract preys; bait TX1BP3 PDZ vs MBP control) was 104.688. The Difference (HeLa cell extract preys; bait TX1BP3 PDZ vs MBP control) was 6.71.

B4: CAVIN1 (protein, UniProt Q6NZI2 1-390, looked up)
Caveolae-associated protein 1: MEDPTLYIVERPLPGYPDAEAPEPSSAGAQAAEEPSGAGSEELIKSDQVNGVLVLSLLDKIIGAVDQIQLTQAQLEERQAEMEGAVQSIQGELSKLGKAHATTSNTVSKLLEKVRKVSVNVKTVRGSLERQAGQIKKLEVNEAELLRRRNFKVMIYQDEVKLPAKLSISKSLKESEALPEKEGEELGEGERPEEDAAALELSSDEAVEVEEVIEESRAERIKRSGLRRVDDFKKAFSKEKMEKTKVRTRENLEKTRLKTKENLEKTRHTLEKRMNKLGTRLVPAERREKLKTSRDKLRKSFTPDHVVYARSKTAVYKVPPFTFHVKKIREGQVEVLKATEMVEVGADDDEGGAERGEAGDLRRGSSPDVHALLEITEESDAVLVDKSDSD
For B4, the “Difference log2” value (HaCat cell extract preys; bait SNX27 PDZ vs MBP) was 7.364 and the “Ratio SNX27/MBP” value (HaCat cell extract preys; fold change of prey) was 164.68.

B5: SFPQ (protein, UniProt P23246 1-707, looked up)
Splicing factor, proline- and …: MSRDRFRSRGGGGGGFHRRGGGGGRGGLHDFRSPPPGMGLNQNRGPMGPGPGQSGPKPPIPPPPPHQQQQQPPPQQPPPQQPPPHQPPPHPQPHQQQQPPPPPQDSSKPVVAQGPGPAPGVGSAPPASSSAPPATPPTSGAPPGSGPGPTPTPPPAVTSAPPGAPPPTPPSSGVPTTPPQAGGPPPPPAAVPGPGPGPKQGPGPGGPKGGKMPGGPKPGGGPGLSTPGGHPKPPHRGGGEPRGGRQHHPPYHQQHHQGPPPGGPGGRSEEKISDSEGFKANLSLLRRPGEKTYTQRCRLFVGNLPADITEDEFKRLFAKYGEPGEVFINKGKGFGFIKLESRALAEIAKAELDDTPMRGRQLRVRFATHAAALSVRNLSPYVSNELLEEAFSQFGPIERAVVIVDDRGRSTGKGIVEFASKPAARKAFERCSEGVFLLTTTPRPVIVEPLEQLDDEDGLPEKLAQKNPMYQKERETPPRFAQHGTFEYEYSQRWKSLDEMEKQQREQVEKNMKDAKDKLESEMEDAYHEHQANLLRQDLMRRQEELRRMEELHNQEMQKRKEMQLRQEEERRRREEEMMIRQREMEEQMRRQREESYSRMGYMDPRERDMRMGGGGAMNMGDPYGSGGQKFPPLGGGGGIGYEANPGVPPATMSGSMMGSDMRTERFGQGGAGPVGGQGPRGMGPGTPAGYGRGREEYEGPNKKPRF
Molecule B5 has a Ratio (HeLa cell extract preys; bait DLG1_1 PDZ vs MBP control) of 33.0339, a Difference (HeLa cell extract preys; bait DLG1_1 PDZ vs MBP control) of 5.046 and a Difference (HeLa cell extract preys; [1]) of 5.287. It also gave a Ratio (HeLa cell extract preys; [2]) of 39.0318.

B6: FUS (protein, UniProt P35637 1-526, looked up)
RNA-binding protein FUS: MASNDYTQQATQSYGAYPTQPGQGYSQQSSQPYGQQSYSGYSQSTDTSGYGQSSYSSYGQSQNTGYGTQSTPQGYGSTGGYGSSQSSQSSYGQQSSYPGYGQQPAPSSTSGSYGSSSQSSSYGQPQSGSYSQQPSYGGQQQSYGQQQSYNPPQGYGQQNQYNSSSGGGGGGGGGGNYGQDQSSMSSGGGSGGGYGNQDQSGGGGSGGYGQQDRGGRGRGGSGGGGGGGGGGYNRSSGGYEPRGRGGGRGGRGGMGGSDRGGFNKFGGPRDQGSRHDSEQDNSDNNTIFVQGLGENVTIESVADYFKQIGIIKTNKKTGQPMINLYTDRETGKLKGEATVSFDDPPSAKAAIDWFDGKEFSGNPIKVSFATRRADFNRGGGNGRGGRGRGGPMGRGGYGGGGSGGGGRGGFPSGGGGGGGQQRAGDWKCPNPTCENMNFSWRNECNQCKAPKPDGPGGGPGGSHMGGNYGDDRRGGRGGYDRGGYRGRGGDRGGFRGGRGGGDRGGFGPGKMDSRGEHRQDRRERPY
With B6 the Difference (HeLa cell extract preys; [1]) was 4.68 and the Ratio (HeLa cell extract preys; [2]) was 25.6321.
